Literature values as cited in article PMC5757840.

Target: SNARE complex (Rattus norvegicus) (UniProt P32851)
Sequence of UniProt P32851 (P32851 whole entry, chain 1 of 3): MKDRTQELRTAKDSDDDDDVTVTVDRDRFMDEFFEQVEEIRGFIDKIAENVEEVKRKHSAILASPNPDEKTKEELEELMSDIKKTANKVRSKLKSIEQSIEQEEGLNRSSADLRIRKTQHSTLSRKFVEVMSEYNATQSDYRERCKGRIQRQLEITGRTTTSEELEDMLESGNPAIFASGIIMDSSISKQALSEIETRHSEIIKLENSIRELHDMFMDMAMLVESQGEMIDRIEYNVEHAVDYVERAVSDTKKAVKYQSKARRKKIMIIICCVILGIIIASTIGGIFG
Sequence of UniProt P32851 (B2RAU4 whole entry, chain 2 of 3, further chain): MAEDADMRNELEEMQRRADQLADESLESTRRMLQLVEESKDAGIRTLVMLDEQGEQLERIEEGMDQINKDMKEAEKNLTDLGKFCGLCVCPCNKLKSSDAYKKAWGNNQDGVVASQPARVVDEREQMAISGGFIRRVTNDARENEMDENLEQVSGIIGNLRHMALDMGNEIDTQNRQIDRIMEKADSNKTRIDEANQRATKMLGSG
Sequence of UniProt P32851 (P63044 2-116, chain 3 of 3, further chain): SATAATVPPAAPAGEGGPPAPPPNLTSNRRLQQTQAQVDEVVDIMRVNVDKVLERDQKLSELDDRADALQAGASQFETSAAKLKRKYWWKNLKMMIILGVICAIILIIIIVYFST

Syt1 (from UniProt P21707)
Kd: 900 nM
